# T1: human C3a receptor (C3aR) (human, UniProt Q16581 1-482)
# T1 construct: whole, on cells
# T1 sequence (looked up): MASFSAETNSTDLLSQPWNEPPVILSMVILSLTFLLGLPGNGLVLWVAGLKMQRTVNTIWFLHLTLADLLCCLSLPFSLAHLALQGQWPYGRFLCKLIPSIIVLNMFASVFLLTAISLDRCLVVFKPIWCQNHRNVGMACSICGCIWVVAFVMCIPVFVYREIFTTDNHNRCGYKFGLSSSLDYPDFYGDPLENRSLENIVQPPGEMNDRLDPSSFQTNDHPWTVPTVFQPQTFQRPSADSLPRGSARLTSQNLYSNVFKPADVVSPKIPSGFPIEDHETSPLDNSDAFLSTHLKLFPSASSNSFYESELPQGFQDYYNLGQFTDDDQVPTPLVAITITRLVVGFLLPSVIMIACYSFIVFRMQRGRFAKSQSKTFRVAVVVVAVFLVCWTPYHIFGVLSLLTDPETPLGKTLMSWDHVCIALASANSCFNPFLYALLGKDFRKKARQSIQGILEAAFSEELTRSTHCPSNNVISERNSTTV
# T2: human CD88 (C5a receptor) (human, UniProt P21730 1-350)
# T2 construct: whole, on cells
# T2 sequence (looked up): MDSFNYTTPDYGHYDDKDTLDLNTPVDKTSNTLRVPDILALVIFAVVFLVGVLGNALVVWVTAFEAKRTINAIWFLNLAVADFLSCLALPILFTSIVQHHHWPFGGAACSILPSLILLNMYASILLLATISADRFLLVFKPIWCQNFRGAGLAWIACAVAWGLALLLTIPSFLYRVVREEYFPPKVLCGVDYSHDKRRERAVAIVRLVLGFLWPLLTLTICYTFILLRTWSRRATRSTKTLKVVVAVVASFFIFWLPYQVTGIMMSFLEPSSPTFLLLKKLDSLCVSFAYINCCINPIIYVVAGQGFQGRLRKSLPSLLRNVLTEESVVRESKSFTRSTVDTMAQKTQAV
# B1: recombinant His6-tagged C5a (ligand, UniProt P01031 678-751, looked up)
# chain: TLQKKIEEIAAKYKHSVVKKCCYDGACVNNDETCEQRAARISLGPRCIKAFTECCVVASQLRANISHKDMQLGR
# notes: domain: C5a; Expressed and purified under denaturing conditions; not shown: His6 tag
# B2: plasma C3a, purified human C3a (ligand)
# chain: not shown
# modifications: FLUOS (fluorescein) label; labelled residues not stated
# notes: domain: C3a; also called FLUOS-C3a
# B3: recombinant C4a (ligand, UniProt P0C0L4 680-756, looked up)
# chain: NVNFQKAINEKLGQYASPTAKRCCQDGVTRLPMMRSCEQRAARVQQPDCREPFLSCCQFAESLRKKSRDKGQAGLQR
# notes: domain: C4a; Expressed and purified under non-denaturing conditions
# B4: plasma ASP (C3a des-Arg^77), purified from human plasma (ligand)
# chain: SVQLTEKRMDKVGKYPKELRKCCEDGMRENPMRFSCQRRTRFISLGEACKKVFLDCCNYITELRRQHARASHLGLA
# modifications: FLUOS (fluorescein) label in the flow cytometry assays, ^125I label in one assay; labelled residues not stated
# notes: Unlabelled in the functional assays; also called acylation stimulating protein; FLUOS-ASP
# B5: recombinant His6-tagged C5a des-Arg^74 (ligand, UniProt P01031 678-750, looked up)
# chain: TLQKKIEEIAAKYKHSVVKKCCYDGACVNNDETCEQRAARISLGPRCIKAFTECCVVASQLRANISHKDMQLG
# notes: domain: C5a des-Arg^74; also called C5adR^74; not shown: His6 tag
# B6: recombinant C3a des-Arg^77 (ligand)
# chain: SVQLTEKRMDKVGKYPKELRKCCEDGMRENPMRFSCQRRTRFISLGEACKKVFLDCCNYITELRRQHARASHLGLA
# notes: Recombinant form, expressed and purified under non-denaturing conditions; also called C3adR^77
# B7: recombinant His6-tagged C3a (ligand)
# chain: not shown
# notes: domain: C3a; Expressed and purified under denaturing conditions; not shown: His6 tag
# B8: recombinant C4a des-Arg^77 (ligand, UniProt P0C0L4 680-755, looked up)
# chain: NVNFQKAINEKLGQYASPTAKRCCQDGVTRLPMMRSCEQRAARVQQPDCREPFLSCCQFAESLRKKSRDKGQAGLQ
# notes: domain: C4a des-Arg^77; Expressed and purified under non-denaturing conditions; also called C4adR^77
# How the values were obtained:
# [1] = molecular target: T1, human C3a receptor (C3aR); assay: radioligand competition on C3aR-transfected RBL cells (radioligand not given)
# human C5L2 [2] = molecular target: T3, human C5L2 (human, UniProt Q9P296 1-337); assay: competition with 50 pM 125I-C3a on C5L2-transfected RBL cells, 4 C
# T3 construct: Expressed on stably transfected RBL-2H3 cells, on transiently or stably transfected HEK 293 cells, and endogenously on HSF cells; also called C5L2 receptor
# Description: (§1) Competition binding assays were performed using 50 pM ¹²⁵I-C5a or ¹²⁵I-C3a (NEN) on adherent C5aR-transfected or C5L2-transfected RBL cells in 96-well microtiter plates (55 000/well) at 4° C. as described previously (22). Competition curves were generated by pre-incubating adherent cells with increasing concentrations of unlabelled complement fragments. The IC₅₀, standard error values and linear regression analyses were obtained by using GraphPad Prism 2.0.
# human C5L2 [3] = molecular target: T3, human C5L2; assay: competition with 50 pM 125I-C5a on C5L2-transfected RBL cells, 4 C
# Description: as §1
# [4] = molecular target: T2, human CD88 (C5a receptor); assay: competition with 50 pM 125I-C5a on CD88-transfected RBL cells, 4 C
# Description: as §1
# [5] = molecular target: T1, human C3a receptor (C3aR); assay: flow cytometry, binding/uptake of FLUOS-C3a on HEK 293 cells transiently transfected with C3aR, 30 min at 37 C
# Description: (§2) HEK 293 cells were transfected with C3aR (A) or C5L2 (B) and three days later cells were incubated for 30 minutes with the indicated concentrations of FLUOS-labelled C3a or ASP, respectively. Binding/uptake was assessed by FACS, and the percentage of cells above a fluorescence intensity of 8 was determined. The fluorescence histograms at the highest and lowest ligand concentrations are shown in the insets;
# (§3) Recombinant C3a des-Arg⁷⁷ can clearly compete with ¹²⁵I-C3a for binding to C5L2, so we then directly measured the affinity of C3a des-Arg⁷⁷ for C5L2, using protein purified from human plasma as ASP. ASP and purified human C3a were labelled with FLUOS. Increasing concentrations of ASP were incubated with HEK 293 cells transiently transfected with C5L2 and binding and uptake assessed by flow cytometry (FIG. 2A). FLUOS-ASP clearly binds to C5L2, with half maximal fluorescence intensity at approximately 3 nM, whereas mock-tansfected cells show no binding of ASP even at a high concentration of 10 nM. For comparison purposes, the binding of FLUOS-C3a and FLUOS-ASP to HEK 293 cells transiently transfected with C3aR is shown (FIG. 2B). […] Thus, C5L2 has binding characteristics that overlap with both CD88 and C3aR but also the unique ability to bind ASP/C3a des-Arg⁷⁷.
# [6] = molecular target: T1, human C3a receptor (C3aR); assay: flow cytometry, FLUOS-ASP on HEK 293 cells transiently transfected with C3aR
# Description: as §2, §3
# [7] = molecular target: T1, human C3a receptor (C3aR); assay: radioligand competition on C3aR-transfected RBL cells
# human C5L2 [8] = molecular target: T3, human C5L2; assay: cell-based or functional assay
# human C5L2 [9] = molecular target: T3, human C5L2; assay: radioligand competition on transfected RBL cells (Table I)
# T3 sequence (Q9P296 whole entry): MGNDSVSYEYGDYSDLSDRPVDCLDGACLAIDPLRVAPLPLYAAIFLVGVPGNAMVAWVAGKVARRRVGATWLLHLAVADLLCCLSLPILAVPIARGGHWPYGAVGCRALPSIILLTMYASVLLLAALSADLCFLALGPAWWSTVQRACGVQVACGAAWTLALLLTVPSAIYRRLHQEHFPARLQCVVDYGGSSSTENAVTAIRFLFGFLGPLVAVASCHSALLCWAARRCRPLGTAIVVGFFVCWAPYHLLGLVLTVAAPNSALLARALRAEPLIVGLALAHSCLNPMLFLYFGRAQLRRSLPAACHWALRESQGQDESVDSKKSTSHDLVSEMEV
Binder,IC50 [1] [nM],pD2 [1],IC50 (human C5L2 [2]) [nM],pD2 (human C5L2 [2]),IC50 (human C5L2 [3]) [nM],pD2 (human C5L2 [3]),IC50 [4] [nM],pD2 [4],EC50 [5] [nM],binding result [6],binding result [7],"activity in the degranulation-enhancement assay against C3a des-Arg^77, C5L2-transfected RBL cells (human C5L2 [8]) [fold]",fold higher affinity for C5L2 than for C3aR (human C5L2 [9]) [fold]
B1,2900,5.54 -log IC50,293,6.53 -log IC50,8.17,8.09 -log IC50,20.5,7.69 -log IC50,–,–,–,–,–
B2,–,–,–,–,–,–,–,–,2.5,–,–,–,–
B3,250,6.6 -log IC50,485,6.31 -log IC50,3790,5.42 -log IC50,4440,5.35 -log IC50,–,–,–,–,–
B4,–,–,–,–,–,–,–,–,–,no binding,–,–,–
B5,9670,5.02 -log IC50,–,< 3 -log IC50,36.9,7.43 -log IC50,411,6.39 -log IC50,–,–,–,–,–
B6,–,< 4 -log IC50,–,–,–,–,–,–,–,–,no binding (tested: pD2 <4),–,–
B7,155,6.81 -log IC50,–,–,–,–,230000,4.64 -log IC50,–,–,–,–,–
B8,100000,4.99 -log IC50,177,6.75 -log IC50,170000,4.72 -log IC50,–,–,–,–,–,230,1000

# Source: patent US20060121462A1 (published 2006)
